Assay results: patent EP4782465A1

Target: Human insulin receptor subtype B (human), P06213
Assay: cell-based or functional assay

B1: Fusion protein 1 (insulin analog 1 + L2 + IgG2 Fc1) (Fc fusion)
chain: FVNQHLCGEHLVEALYLVCGERGFHYGGGGGGSGGGGGIVEQCCESICSLEQLENYCGGGGGQGGGGQGGGGQGGGGGECPPCPAPPVAGPSVFLFPPKPKDTLMISRTPEVTCVVVDVSHEDPEVQFNWYVDGVEVHNAKTKPREEQFNSTFRVVSVLTVVHQDWLNGKEYKCKVSNKGLPAPIEKTISKTKGQPREPQVYTLPPSREEMTKNQVSLTCLVKGFYPSDIAVEWESNGQPENNYKTTPPMLDSDGSFFLYSKLTVDKSRWQQGNVFSCSVMHEALHNHYTQKSLSLSPG
Human insulin receptor subtype B activity (EC50): 422 nM
